Experimental data as given in US6284456.

System: HIV-1 Tat Tat-1 delta1-47 (Human immunodeficiency virus 1 (HXB2))
Assay: EMSA
Conditions: truncated Tat-1 (construct assumed delta1-47)

HIV-2 TAR-2 RNA wt (+1 to +123)
binding signal (fold higher affinity than for TAR-1): 4
